# Experimental data: PMC4338524 (Nature communications, 2014)
# T1: E. coli MinD, full-length, untagged (E. coli, UniProt P0AEZ3 1-270)
# T1 sequence: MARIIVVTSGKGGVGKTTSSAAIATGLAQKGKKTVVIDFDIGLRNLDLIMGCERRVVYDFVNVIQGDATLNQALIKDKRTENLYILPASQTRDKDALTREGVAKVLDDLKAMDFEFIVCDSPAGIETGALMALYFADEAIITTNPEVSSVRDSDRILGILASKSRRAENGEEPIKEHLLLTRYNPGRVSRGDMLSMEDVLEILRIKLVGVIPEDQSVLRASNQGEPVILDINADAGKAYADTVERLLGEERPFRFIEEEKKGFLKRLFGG
# T2: E. coli MinCD copolymeric filaments (pre-formed) (E. coli, UniProt P18196;P0AEZ3)
# T2 sequence 1: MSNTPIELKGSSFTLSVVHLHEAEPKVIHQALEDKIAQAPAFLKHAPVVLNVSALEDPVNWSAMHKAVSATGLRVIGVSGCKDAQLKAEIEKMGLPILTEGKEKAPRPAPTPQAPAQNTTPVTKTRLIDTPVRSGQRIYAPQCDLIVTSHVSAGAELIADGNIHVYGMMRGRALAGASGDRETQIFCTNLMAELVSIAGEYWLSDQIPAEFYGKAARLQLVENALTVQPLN
# T2 sequence 2: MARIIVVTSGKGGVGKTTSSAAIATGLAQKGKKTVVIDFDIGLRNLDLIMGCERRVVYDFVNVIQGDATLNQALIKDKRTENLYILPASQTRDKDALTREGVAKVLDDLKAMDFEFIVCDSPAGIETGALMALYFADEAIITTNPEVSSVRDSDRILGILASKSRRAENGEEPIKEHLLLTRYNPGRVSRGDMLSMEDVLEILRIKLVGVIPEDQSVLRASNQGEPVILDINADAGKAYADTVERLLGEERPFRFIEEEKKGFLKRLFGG
# How the values were obtained:
# [1] = target: T1, E. coli MinD, full-length, untagged; assay: 90° angle light scattering
# [2] = target: T2, E. coli MinCD copolymeric filaments …; assay: electron cryotomography of decorated liposomes
# [3] = target: the molecule itself; assay: co-sedimentation
Binder,binding result [1],binding result [2],binding result [3]
"E. coli MinE, full length (natural protein) MALLDFFLSRKKNTANIAKERLQIIVAERRRSDAEPHYLPQLRKDILEVICKYVQIDPEMVTVQLEQKDGDISILELNVTLPEAEELK",binds,–,–
E. coli FtsZ (natural protein) MFEPMELTNDAVIKVIGVGGGGGNAVEHMVRERIEGVEFFAVNTDAQALRKTAVGQTIQIGSGITKGLGAGANPEVGRNAADEDRDALRAALEGADMVFIAAGMGGGTGTGAAPVVAEVAKDLGILTVAVVTKPFNFEGKKRMAFAEQGITELSKHVDSLITIPNDKLLKVLGRGISLLDAFGAANDVLKGAVQGIAELITRPGLMNVDFADVRTVMSEMGYAMMGSGVASGEDRAEEAAEMAISSPLLEDIDLSGARGVLVNITAGFDLRLDEFETVGNTIRAFASDNATVVIGTSLDPDMNDELRVTVVATGIGMDKRPEITLVTNKQVQQPVMDRYQQHGMAPLTQEQKPVAKVVNDNAPQTAKEPDYLDIPAFLRKQAD,–,binds,binds
